# Test results published in US20230151091A1 (NEW YORK UNIVERSITY, published 2023).
# T1: mouse MuSK, endogenous (C2C12 myotubes; neuromuscular synapses of mice) (mouse, UniProt Q61006 22-868)
# T1 sequence (looked up): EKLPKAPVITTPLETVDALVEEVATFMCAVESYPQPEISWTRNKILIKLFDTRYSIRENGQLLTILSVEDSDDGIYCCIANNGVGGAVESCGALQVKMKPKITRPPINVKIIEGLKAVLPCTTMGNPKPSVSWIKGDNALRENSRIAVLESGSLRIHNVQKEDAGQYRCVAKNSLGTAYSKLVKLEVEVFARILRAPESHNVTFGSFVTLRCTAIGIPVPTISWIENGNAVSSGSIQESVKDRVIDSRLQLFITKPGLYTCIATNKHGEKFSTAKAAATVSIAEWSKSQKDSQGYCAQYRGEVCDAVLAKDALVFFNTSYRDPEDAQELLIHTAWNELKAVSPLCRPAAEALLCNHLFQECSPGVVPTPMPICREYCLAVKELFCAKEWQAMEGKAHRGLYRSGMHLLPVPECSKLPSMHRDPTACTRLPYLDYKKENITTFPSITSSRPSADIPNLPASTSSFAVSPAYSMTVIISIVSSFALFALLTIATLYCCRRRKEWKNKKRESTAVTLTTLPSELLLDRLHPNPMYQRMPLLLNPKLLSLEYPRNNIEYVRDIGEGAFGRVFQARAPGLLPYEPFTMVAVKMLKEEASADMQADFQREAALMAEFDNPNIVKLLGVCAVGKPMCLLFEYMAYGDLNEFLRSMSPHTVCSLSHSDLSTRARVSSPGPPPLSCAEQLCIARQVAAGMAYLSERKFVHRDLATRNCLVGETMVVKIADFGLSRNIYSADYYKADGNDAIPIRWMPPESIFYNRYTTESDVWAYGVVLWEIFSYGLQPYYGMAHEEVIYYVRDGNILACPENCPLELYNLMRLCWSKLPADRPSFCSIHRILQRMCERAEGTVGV
# T2: mouse MuSK (mouse, UniProt Q61006 22-494, limits assumed)
# T2 construct: Coated on ELISA plates or on the Biacore chip; also called full length mouse MuSK; mouse MuSK (in house produced in HEK293 cells)
# T2 sequence (looked up): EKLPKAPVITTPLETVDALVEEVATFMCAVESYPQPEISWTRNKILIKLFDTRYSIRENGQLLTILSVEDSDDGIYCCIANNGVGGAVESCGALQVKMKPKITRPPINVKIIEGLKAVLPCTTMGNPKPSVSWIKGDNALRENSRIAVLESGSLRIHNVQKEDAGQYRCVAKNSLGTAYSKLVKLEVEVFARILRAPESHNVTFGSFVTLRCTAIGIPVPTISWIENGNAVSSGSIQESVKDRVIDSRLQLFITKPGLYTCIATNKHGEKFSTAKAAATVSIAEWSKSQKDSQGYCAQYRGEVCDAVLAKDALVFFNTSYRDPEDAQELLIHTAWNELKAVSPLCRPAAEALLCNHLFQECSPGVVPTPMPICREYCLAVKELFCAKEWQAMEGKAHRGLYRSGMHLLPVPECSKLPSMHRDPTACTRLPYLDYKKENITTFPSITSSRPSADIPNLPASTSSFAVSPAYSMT
# T3: human MuSK (human, UniProt O15146 24-495)
# T3 construct: Recombinant protein coated on ELISA plates (R&D Systems cat. 10189-MK) or on the Biacore chip; also called human muscle-specific tyrosine protein kinase; full length human MuSK
# T3 sequence: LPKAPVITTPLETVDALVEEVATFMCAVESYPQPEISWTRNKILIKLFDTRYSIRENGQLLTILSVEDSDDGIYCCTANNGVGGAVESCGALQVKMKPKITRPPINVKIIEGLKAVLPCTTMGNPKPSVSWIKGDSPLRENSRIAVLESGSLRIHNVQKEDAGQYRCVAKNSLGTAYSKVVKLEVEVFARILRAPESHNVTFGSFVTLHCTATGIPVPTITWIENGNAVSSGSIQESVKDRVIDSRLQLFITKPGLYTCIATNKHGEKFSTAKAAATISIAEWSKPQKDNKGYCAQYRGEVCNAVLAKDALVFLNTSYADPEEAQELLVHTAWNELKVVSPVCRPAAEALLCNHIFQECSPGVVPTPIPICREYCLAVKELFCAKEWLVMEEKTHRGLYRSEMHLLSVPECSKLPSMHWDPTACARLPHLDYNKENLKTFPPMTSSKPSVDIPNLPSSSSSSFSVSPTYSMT
# T4: hFz: Fz domain and C-terminal flanking sequence of human MuSK (K314-T495) with C-terminal Avi- and His6-tags (human, UniProt O15146 314-495, biotinylated in vitro using the BirA enzyme)
# T4 construct: also called human Fz; not shown: Avi- and His6-tags
# T4 sequence: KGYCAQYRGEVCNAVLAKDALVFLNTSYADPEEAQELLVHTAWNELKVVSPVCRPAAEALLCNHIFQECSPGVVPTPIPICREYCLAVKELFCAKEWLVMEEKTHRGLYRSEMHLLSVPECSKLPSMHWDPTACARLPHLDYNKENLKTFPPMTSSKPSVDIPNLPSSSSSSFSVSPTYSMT
# T5: mFz: Fz domain and C-terminal flanking sequence of mouse MuSK (D307 to T494) with C-terminal Avi- and … (mouse, UniProt Q61006 307-494, limits assumed, biotinylated in vitro using the BirA enzyme)
# T5 construct: also called mouse Fz; not shown: Avi- and His6-tags
# T5 sequence (looked up): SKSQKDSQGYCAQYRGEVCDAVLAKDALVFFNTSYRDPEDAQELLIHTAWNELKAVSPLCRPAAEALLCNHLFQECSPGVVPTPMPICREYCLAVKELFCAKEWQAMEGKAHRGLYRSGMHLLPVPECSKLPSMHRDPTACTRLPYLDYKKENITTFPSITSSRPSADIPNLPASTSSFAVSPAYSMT
# T6: mECD: full-length extracellular region of mouse MuSK (E22 to T494) with C-terminal Avi- and His6-tags (mouse, UniProt Q61006 22-494, biotinylated in vitro using the BirA enzyme)
# T6 construct: range 22-494; also called mouse ECD; not shown: Avi- and His6-tags
# T6 sequence (looked up): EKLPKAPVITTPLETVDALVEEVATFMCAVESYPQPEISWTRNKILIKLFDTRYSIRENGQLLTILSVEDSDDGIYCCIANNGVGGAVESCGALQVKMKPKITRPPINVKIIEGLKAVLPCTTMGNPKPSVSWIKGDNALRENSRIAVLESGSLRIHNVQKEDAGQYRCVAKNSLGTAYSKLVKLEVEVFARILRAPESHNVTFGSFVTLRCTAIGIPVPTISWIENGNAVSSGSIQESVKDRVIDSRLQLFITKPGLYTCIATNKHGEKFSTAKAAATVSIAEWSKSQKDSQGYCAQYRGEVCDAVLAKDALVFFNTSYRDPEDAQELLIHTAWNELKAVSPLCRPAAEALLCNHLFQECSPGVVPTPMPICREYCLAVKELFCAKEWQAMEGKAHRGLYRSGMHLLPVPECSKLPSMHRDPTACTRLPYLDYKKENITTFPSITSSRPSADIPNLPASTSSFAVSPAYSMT
# T7: hECD: full-length extracellular region of human MuSK (E22 to T495) with C-terminal Avi- and His6-tags (human, UniProt O15146 22-495, biotinylated in vitro using the BirA enzyme)
# T7 construct: also called human ECD; not shown: Avi- and His6-tags
# T7 sequence: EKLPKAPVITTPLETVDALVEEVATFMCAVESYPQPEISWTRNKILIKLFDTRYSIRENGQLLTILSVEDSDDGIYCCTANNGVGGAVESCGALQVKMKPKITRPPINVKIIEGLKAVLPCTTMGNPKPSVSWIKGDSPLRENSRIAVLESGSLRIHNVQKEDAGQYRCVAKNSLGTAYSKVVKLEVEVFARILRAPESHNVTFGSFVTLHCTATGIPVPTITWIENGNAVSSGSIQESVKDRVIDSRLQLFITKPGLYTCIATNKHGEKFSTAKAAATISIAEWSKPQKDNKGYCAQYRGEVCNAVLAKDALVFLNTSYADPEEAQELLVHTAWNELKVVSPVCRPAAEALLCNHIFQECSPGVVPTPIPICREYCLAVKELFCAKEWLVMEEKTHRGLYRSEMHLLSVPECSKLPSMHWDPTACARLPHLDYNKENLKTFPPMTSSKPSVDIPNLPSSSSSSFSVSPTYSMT
# Tests used:
# [1] = target: T1, mouse MuSK, endogenous (C2C12 myotubes; …); test: cell-based or functional assay
# mouse MuSK [2] = target: T2, mouse MuSK; test: Biacore, mAb
# Source text: (§1) For affinity determination, a CMS chip was coated with either human or mouse MuSK (200RU) and a dilution series of the antibodies (mAbs and Fabs) was applied in order to be able to calculate the affinity.
# mouse MuSK [3] = target: T2, mouse MuSK; test: Biacore, MuSK on chip (200RU), mAb dilution series
# Source text: as §1
# human MuSK = target: T3, human MuSK; test: Biacore, MuSK on chip (200RU), mAb dilution series
# Source text: as §1
# [4] = target: T4, hFz: Fz domain and C-terminal flanking …; test: bead-binding titration, Fab format: antigen immobilized on streptavidin beads, MFI by flow cytometry, curve is the 1:1 fit
# [5] = target: T5, mFz: Fz domain and C-terminal flanking …; test: as above
# [6] = target: T6, mECD: full-length extracellular region …; test: as above
# [7] = target: T7, hECD: full-length extracellular region …; test: as above
# [8] = target: T4, hFz: Fz domain and C-terminal flanking …; test: bead-binding assay, Fab format: biotinylated antigen on streptavidin beads, flow cytometry, 1:1 fit; average ± s.d., n=3
# [9] = target: T5, mFz: Fz domain and C-terminal flanking …; test: as above
# [10] = target: T6, mECD: full-length extracellular region …; test: as above
# [11] = target: T7, hECD: full-length extracellular region …; test: as above
Binder,"% Phosphorylation Induced in C2C12 Mouse Assay, Assay 1 [1]","% Phosphorylation Induced in C2C12 Mouse Assay, Assay 2 [1]","% Phosphorylation Induced in C2C12 Mouse Assay, Assay 3 [1]","% Phosphorylation Induced in C2C12 Mouse Assay, Average [1]","fold difference in affinity, human versus mouse MuSK (mouse MuSK [2])",Kd (mouse MuSK [3]),Kd (human MuSK),EC50 (read off the curve) [4],EC50 (read off the curve) [5],EC50 (read off the curve) [6],EC50 (read off the curve) [7],Kd [8],Kd [9],Kd [10],Kd [11]
"X6 Fab (Fab, V domains shown, also called Fab Clone X6) VH: EVQLVESGGGLVQPGGSLRLSCAASGFTFSSSSIHWVRQAPGKGLEWVASISSYSGYTYYADSVKGRFTISADTSKNTAYLQMNSLRAEDTAVYYCARTYGSYYVSSYTGMDYWGQGTLVTVSS VL: DIQMTQSPSSLSASVGDRVTITCRASQSVSSAVAWYQQKPGKAPKLLIYSASSLYSGVPSRFSGSRSGTDFTLTISSLQPEDFATYYCQQSSSSLITFGQGTKVEIK",–,–,–,–,–,–,–,~1 nM,~0.4 nM,~0.6 nM,~1 nM,0.9 nM,0.42 nM,0.59 nM,1.47 nM
"X13 Fab (Fab, V domains shown, also called Fab Clone X13) VH: EVQLVESGGGLVQPGGSLRLSCAASGFTISSSSIHWVRQAPGKGLEWVASISSSSGSTSYADSVKGRFTISADTSKNTAYLQMNSLRAEDTAVYYCARSSEHWYTIGYYGIDYWGQGTLVTVSS VL: DIQMTQSPSSLSASVGDRVTITCRASQSVSSAVAWYQQKPGKAPKLLIYSASSLYSGVPSRFSGSRSGTDFTLTISSLQPEDFATYYCQQSYGSFSLITFGQGTKVEIK",–,–,–,–,–,–,–,~2 nM,~2 nM,~2 nM,~2 nM,1.7 nM,1.56 nM,2.41 nM,2.39 nM

# More lines, now with the values ahead:
"% Phosphorylation Induced in C2C12 Mouse Assay, Assay 1 [1]","% Phosphorylation Induced in C2C12 Mouse Assay, Assay 2 [1]","% Phosphorylation Induced in C2C12 Mouse Assay, Assay 3 [1]","% Phosphorylation Induced in C2C12 Mouse Assay, Average [1]","fold difference in affinity, human versus mouse MuSK (mouse MuSK [2])",Kd (mouse MuSK [3]),Kd (human MuSK),EC50 (read off the curve) [4],EC50 (read off the curve) [5],EC50 (read off the curve) [6],EC50 (read off the curve) [7],Kd [8],Kd [9],Kd [10],Kd [11],Binder
66 % versus agrin,82 % versus agrin,50 % versus agrin,66 % versus agrin,10 fold,0.153 nM,0.011 nM,–,–,–,–,–,–,–,–,"30E1 (antibody, V domains shown, human IgG1 with the LALA mutations (L234A, L235A); produced in HEK293 cells; also called 30E1 mAb) VH: QVQVQESGPGLVKPSQTLSLTCTVSGGSITARYYSWSWIRQPPGKGLEWMGVIAYDGSTYYSPSLKSRTSISRDTSKNQFSLHLSSVTPDDTAVYYCARGSSRVAAAFDSWGQGTQVTVSS VL: SYELTQSPSVSVALRRTAKITCGGDNIGSKNTQWYQQKPGQAPVLVIYADSRRPSGIPERFSGSNSGNTATLTISGAQAEDEADYYCHVWDSSTNAWFGGGTHLTVL"
73 % versus agrin,89 % versus agrin,74 % versus agrin,79 % versus agrin,100 fold,0.11 nM,0.001 nM,–,–,–,–,–,–,–,–,"30A11 (antibody, V domains shown, human IgG1 with the LALA mutations (L234A, L235A); produced in HEK293 cells; also called 30A11 mAb) VH: QVQVQESGPGLVKPSQTLSLTCTVSGGSITARYYSWSWIRQPPGKGLEWMGVIAYDGSTYYSPSLKSRTSISRDTSKNQFSLHLSSVTPDDTAVYYCARGSSRVAAAFDSWGQGTQVTVSS VL: SYELTQSPSVTVALRQTAKITCGGDNIASKNVQWYQQKPGQAPSLVIWADSRRPSGIPVRFSGSNFGNTATLTISGAQAEDEADYYCQVWDSSTNVAVFGGGTHLTVL"
